Experimental data published in the DeepSol protein solubility set.

Experiment: soluble on expression in E. coli; label from the status in PepcDB or PDB records

| Sequence | soluble on expression in E. coli |
| --- | --- |
| MGSDKIHHHHHHMRRVNRPAPLSERQYEYMQRCINSWFNVAEGGKRGGKNVLQTLIFCSLLETHKNKIHLVAGVSSATAKLNILDCDGYGLLNYFEGRCREGKYKDRDCVYVQTKTGEKIVLVSGGGKDGDEKLIKGNTYGMAYVTEANECHQKFLKEVFDRTLSSTDRKIFHDLNPKEEEHWYYTEILKFHEEQQANDENYGYNYGHFTLVDNMSMSDEKIRTVLKTYQKGTVWYKRDIKGERAVAEGIIFRKFKENNIPYLCDDSILKYNKDGELFPRPSKVIIGMDFGGNGSMTTMVCSLYFRGYHFIYPVEEDYLELSPDIDANNICDKYIEFYRRCAAKYERIDWTFPDSASTTMINSLRSAAKKDGLRYDHIAGCRKNEISERPRTVDLLLNTGRMKVHKRCVNLRKAIGTLKWDEKHPNIPEDKNIGNCNDWWDALCYTMLDFIEYIDLDR | not soluble |
| MELESKMGAFCGAAQSNYDDACVAFSAANKCAPIERETGVKKLADKLNPEQPHKLSVMDVKLITKASGDYTIVNSLLYSLDMVAVAVDKNGESETFVKRTLDNSIYAGELAQEALKHAGQKRMTGRSKNTIVKKAHTAIGNLVLLINDMEGRTPNASSFLSMGMDLLSSGVTVPGLA | not soluble |
| SNAMKLTPNYYRDRVCLNVLAGSKDNARAIYQAAEGHVLVGVLSKNYPDVDSAVKDMREYAALIDNALSVGLGAGDPRQSVMVSQISQQVQPQHVNQVFTGVGASRALLGQHDTVVNGLISPTGKVGYVKISTGPLSSQQKDAIVPVTTAIAMLKDMGGSSVKFFPMNGLDSIDEYRFVAEACAATGFWLEPTGGIDLDNFEQIVQIALDAGVTKVIPHIYSSIIDSKTGNTRPEDVKTLLDIVKKIVQ | soluble |
| MAAIKANEQDAVGMIVRKQSEFEENSHNFNNNGPSLSDMPIEVIHNIVDYVDPINILVIRKVCRKLRNVLDGDPKFKDVHLHQPTSLDMNFSLELDDSWVDYRTNGSGSGLGLFRNSISKTKTKIFVLKHENENENENGTNCTYGF | soluble |
| MINVDPPTGNFPASGGNSVHNIVSESDSRLAFKVKSSNNEHYRVRPVYGFIDPKGKTKLDINRIAGPPKVDKLVIQYAEVPADETDPQAPFKAGAQQGEVIVKITAE | not soluble |
| MQAWFMDDSNEDQRLPHHRNPKELVSLDYLAELGVLYWKLNPENYENDSELSKIREDRGYDYMDLLDLCPEKVSNYEEKLKNFFTEHIHKDEEIRYCLAGSGYFDVRDKDDRWIRIWMQPGDLIVLPAGIYHRFTLDASNYIKLMRLFVGEPVWTPYNRPQEEHPVRKKYIHGLTYKFGETVKAH | soluble |
| MRCMTLPAYDIAILGAGPVGRVLALLLARLTPQPQRIALLQGGAGLPPTPAGTLGPAADPRVLALNHGSRVLLESLRAWPAHAAEIRHIHVSQRGRLGRTVIDREDFDVPQLGNVVAYAALHAQLEQAVQDCGVTVLSGPPARVDGQDGEGLTVRQGDAALHCRLAVQCDGAGGSDVRRDYAQHAVLTSAHATLPRSGWAWERFTNEGPLAMLPHPQTPEAYSVVWCCAPPRAQRLAGLDDEAFSRELTEAFGTRLGRLRSAAPRHVFPLELKARHAQAHGRLATIGNAAQTLHPVAGQGLNLGLRDAAQLAHALPDWLAAPQADPSPLLAAFARARLADRWVTAGLTDLMPRIFATGLAPVEHACGLALLGLDIAAPLRAPLARHLLQGLRV | not soluble |
| MTNEEPKSPEKVERRRSTQEDSEKDKKRSRDDRKTEKRTHDRDRKRNRSRSRSRSRSPKRSRRDKKEEKQEQEEEDGEIRDTTPPAPEKPRQLTARELERQRIIEEELKSGKHDEHDDDPVWSMKKAQAEKKSRMCPYLDTIDRSVLDFDFEKQCSVSLSHQNVYACMVCGKYFQGRGTNTHAYTHALETDHHVFLNLQTLKFYCLPDNYEVIDPSLEDIKYVLKPTYTKEMIASIDKQSKMVRAYDDSTYFPGVVGLNNIKANDYCNAILQALSAVRPLRNWFLKESNYTSIKRPPGDKLTLLPQRFGELIRKLWNPRALRTHVSPHEMLQAVVVCSNKKFQFIKQNDAADFMLFLLTTLHSALNGTDKKPSIISKTFRGRMRQYSRRVIPAEDTDEEKYMKLRMPEYQEKVIESPFLYLTLDLPSAPLYRDVQLQNIIPQVPLSTLLEKFDGKTEKEYPTYNDNNIMKRFELLQLPDFLIITYKRFQKNQWFVEKNPTIVNFPIANVDFYDCLAKDARANHKYTTYDLVANVVHEGTFKDGNYRIQIVHEGSGKWFELEDLHVKDLLPQMIVLAESYIQIWRLNKEQTRDERAEGEPMQN | not soluble |
